The target in one experiment is human 4-1BB (human, UniProt Q07011). Briefly: SPR, 25C.
Experiment [1] concerns the target T1, human ROR1 (human, UniProt Q01973). Description: ELISA, stored 4C.
For experiment [2], the target named is T1, human ROR1. Briefly: ELISA, stored 37C 2 weeks.
For experiment [3], the target named is T2, human B7-H3 (human, UniProt Q5ZPR3).
T2 chain: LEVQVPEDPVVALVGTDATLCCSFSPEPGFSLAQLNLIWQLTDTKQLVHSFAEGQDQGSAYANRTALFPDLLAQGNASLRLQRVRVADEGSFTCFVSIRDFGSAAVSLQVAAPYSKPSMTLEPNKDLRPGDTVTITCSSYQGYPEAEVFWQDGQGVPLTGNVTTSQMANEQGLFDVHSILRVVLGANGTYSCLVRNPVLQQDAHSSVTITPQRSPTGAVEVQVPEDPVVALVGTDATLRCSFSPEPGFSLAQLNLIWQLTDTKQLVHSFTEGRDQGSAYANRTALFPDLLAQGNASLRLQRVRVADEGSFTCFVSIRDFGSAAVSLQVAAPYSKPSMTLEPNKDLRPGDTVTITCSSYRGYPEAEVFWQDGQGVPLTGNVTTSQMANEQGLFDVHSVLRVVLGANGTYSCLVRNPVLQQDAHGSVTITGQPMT
Briefly: ELISA, stored 4C.

Experiment [4] deals with T2, human B7-H3. Briefly: ELISA, stored 40C 2 weeks.
For experiment [5], the target named is T1, human ROR1. Description: SPR, 25C, bivalent analyte.
The target in experiment [6] is T1, human ROR1. Briefly: ELISA, human serum 14 days.
Experiment [7] concerns the target T1, human ROR1. Description: ELISA, human serum 0 day.
Experiment [8] addresses T1, human ROR1. Description: ELISA, human serum 7 days.
In experiment [9] the target is T1, human ROR1. Description: ELISA, monkey serum 14 days.
Experiment [10] addresses T1, human ROR1. Briefly: ELISA, monkey serum 0 day.
Experiment [11] concerns the target T1, human ROR1. Briefly: ELISA, monkey serum 3 days.
Experiment [12] addresses T1, human ROR1. Description: ELISA, human serum 3 days.
The target in experiment [13] is T1, human ROR1. Description: ELISA, monkey serum 7 days.
For experiment [14], the target named is T1, human ROR1. Description: ELISA, dual-antigen capture ROR1/4-1BB.
Experiment [15] deals with T1, human ROR1. Description: ELISA, stored 40C 2 weeks.
The target of experiment [16] is T1, human ROR1. Description: ELISA, stored 4C. This is another data set of the same source.
In experiment [17] the target is T1, human ROR1. Description: ELISA, human serum 2 days.
The target in experiment [18] is T1, human ROR1. Description: ELISA, monkey serum 2 days.

From patent publication US20260356943 (published 2026) come the findings set out here.

Positions count from the first letter of the chain named.

T1 sequence (Q01973 30-403): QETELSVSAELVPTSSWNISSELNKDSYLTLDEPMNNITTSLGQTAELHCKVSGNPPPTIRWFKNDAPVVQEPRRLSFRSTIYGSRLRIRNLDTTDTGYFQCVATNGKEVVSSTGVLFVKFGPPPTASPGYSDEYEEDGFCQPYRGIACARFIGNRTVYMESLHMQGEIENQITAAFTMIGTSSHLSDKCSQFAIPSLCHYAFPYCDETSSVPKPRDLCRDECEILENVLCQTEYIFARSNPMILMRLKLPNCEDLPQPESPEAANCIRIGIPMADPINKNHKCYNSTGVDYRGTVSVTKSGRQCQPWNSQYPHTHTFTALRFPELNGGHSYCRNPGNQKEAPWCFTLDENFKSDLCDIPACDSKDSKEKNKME
human 4-1BB, sequence (Q07011 24-186): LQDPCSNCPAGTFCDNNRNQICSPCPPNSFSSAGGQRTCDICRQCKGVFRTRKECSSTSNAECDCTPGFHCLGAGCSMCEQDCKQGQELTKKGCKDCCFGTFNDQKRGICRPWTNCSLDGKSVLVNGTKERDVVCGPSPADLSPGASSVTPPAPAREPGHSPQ

B1: BA6M11(WT)x1A10M12 4-1BB arm (antibody, V domains shown)
VH: EVQLLESGGGLVQPGGSLRLSCAASGFTFSSYDMSWVRQAPGKCLEWVSWISYSGGSIYYADSVKGRFTISRDNSKNTLYLQMNSLRAEDTAVYYCARDAQRNSMREFDYWGQGTLVTVSS
VL: QSVLTQPPSASGTPGQRVTISCSGSSSNIGNNYVTWYQQLPGTAPKLLIYADSHRPSGVPDRFSGSKSGTSASLAISGLRSEDEADYYCATWDYSLSGYVFGCGTKLTVL
Consider B1, for which the Kd in the experiment with human 4-1BB came to 4.53 nM.

B2: BA6M11(NA)x1A10M12 4-1BB arm (antibody, V domains shown)
VH: B1 VH
VL: B1 VL
In the experiment with human 4-1BB, B2 gave a Kd of 4.5 nM.

B3: BA6M11 IgG (antibody, V domains shown)
VH: EVQLLESGGGLVQPGGSLRLSCAASGFTFSNYDMSWVRQAPGKGLEWVSAIYHSGSSKYYADSVKGRFTISRDNSKNTLYLQMNSLRAEDTAVYYCARGGSGAWDTGFDYWGQGTLVTVSS
VL: QSVLTQPPSASGTPGQRVTISCSGSSSNIGSNDVSWYQQLPGTAPKLLIYYENNRPSGVPDRFSGSKSGTSASLAISGLRSEDEADYYCGAWDDSLSGYVFGGGTKLTVL
Take B3: the EC50 with human ROR1 [1] worked out at 0.166 nM; in the experiment with human ROR1 [2] it was 0.129 nM.

B4: BA6xB5 B7-H3 arm (antibody, V domains shown)
VH: EVQLLESGGGLVQPGGSLRLSCAASGFTFSDYAMSWVRQAPGKCLEWVSSISSGSGSIYYADSVKGRFTISRDNSKNTLYLQMNSLRAEDTAVYYCAKNLIPLDYWGQGTLVTVSS
VL: B3 VL with D33A, E52N, N53S, N54H, A91S, D94A, S97N, G98A, G103C
As for B4, the 50% effective concentration (EC50) with human B7-H3 [3] came to 0.173 nM; with human B7-H3 [4], 0.186 nM.

B5: BA6M11(WT)x1A10M12 ROR1 arm (antibody, V domains shown)
VH: B3 VH
VL: B3 VL
The molecule B5 showed a Kd with human ROR1 [5] of 6.05 nM.

B6: BA6M11xB5 B7-H3 arm (antibody, V domains shown)
VH: B4 VH
VL: B3 VL with D33A, E52N, N53S, N54H, A91S, D94A, S97N, G98A, G103C
On to B6, for which the EC50 in the experiment with human B7-H3 [3] stood at 0.232 nM; with human B7-H3 [4], 0.19 nM.

B7: BA6M11(NA)x1A10M12 ROR1 arm (antibody, V domains shown)
VH: B3 VH
VL: B3 VL
With B7, the EC50 in the experiment with human ROR1 [6] turned out to be 0.233 nM; in the experiment with human ROR1 [7], 0.211 nM; with human ROR1 [8] it was 0.236 nM; with human ROR1 [9], 0.273 nM; in the experiment with human ROR1 [10], 0.208 nM; with human ROR1 [11] it was 0.238 nM. The results for the EC50 in the experiment with human ROR1 [12], with human ROR1 [13] and with human ROR1 [14] were 0.22 nM, 0.257 nM and 0.268 nM, respectively. Moreover, the Kd in the experiment with human ROR1 [5] was 6.65 nM.

B8: BA6xB5 ROR1 arm (antibody, V domains shown)
VH: B3 VH with S101N
VL: B3 VL with E52D
Consider B8, for which the half-maximal effective concentration (EC50) with human ROR1 [15] amounted to 0.18 nM; with human ROR1 [16], 0.141 nM.

B9: BA6M11xB5 ROR1 arm (antibody, V domains shown)
VH: B3 VH
VL: B3 VL
In the case of B9, the figures for the EC50 with human ROR1 [15] and with human ROR1 [16] were 0.134 nM and 0.152 nM, respectively.

B10: BA6 IgG (WT) (antibody, V domains shown)
VH: B3 VH with S101N
VL: B3 VL with E52D
Take B10: the EC50 with human ROR1 [1] was 0.217 nM; in the experiment with human ROR1 [2], 0.261 nM.

B11: BA6x1A10M12 ROR1 arm (antibody, V domains shown)
VH: B3 VH with S101N
VL: B3 VL with E52D
For the molecule B11, the EC50 was 0.457 nM with human ROR1 [6]; 0.228 nM with human ROR1 [7]; 0.42 nM with human ROR1 [8]; 0.419 nM in the experiment with human ROR1 [9]; 0.365 nM in the experiment with human ROR1 [17]; 0.24 nM with human ROR1 [10]. Moreover, the 50% effective concentration (EC50) stood at 0.427 nM in the experiment with human ROR1 [13], 0.36 nM with human ROR1 [18] and 0.386 nM with human ROR1 [14].
